We go through ten molecules from patent US20120269817A1 (Bayer, published 2012).

The target of one test is T1, BSA (bovine, UniProt P02769 25-607).
T1 construct: also called bovine serum albumin
The experiment in a line: ELISA. An outline of the steps:
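Fab from E. coli TG1 lysates bound to plates coated with human TFPI, or with mouse TFPI for cross-reactivity, with BSA and lysozyme as negative controls. Detection by HRP-anti-human Fab with AmplexRed/H2O2; signal ≥5-fold over background scored positive.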
For orientation: An ELISA detects its analyte on a solid surface through an enzyme-linked reagent.

Test [1] has as its target T2, human tissue factor pathway inhibitor (TFPI) (human, UniProt P10646 29-304, limits assumed).
T2 construct: Bought protein; also called human TFPI; hTFPI
T2 sequence (looked up): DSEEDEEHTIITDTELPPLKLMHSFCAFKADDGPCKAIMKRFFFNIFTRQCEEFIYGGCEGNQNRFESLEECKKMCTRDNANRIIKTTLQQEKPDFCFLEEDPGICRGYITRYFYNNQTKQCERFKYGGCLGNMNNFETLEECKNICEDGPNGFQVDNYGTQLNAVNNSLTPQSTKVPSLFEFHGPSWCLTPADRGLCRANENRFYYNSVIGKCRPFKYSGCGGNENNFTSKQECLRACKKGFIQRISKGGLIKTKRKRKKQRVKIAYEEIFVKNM
The experiment in a line: Biacore, TFPI on CM5 chip, Fab in mobile phase. The procedure:
(§1) Purified Fab antibodies were used to determine EC₅₀ of anti-TFPI antibodies to human or mouse TFPI. EC₅₀ was assessed in an ELISA, similarly as described above. The results were analyzed using SoftMax. The binding affinity of anti-TFPI antibodies was determined in a Biacore assay. Briefly, the antigen, either human or mouse TFPI, was immobilized on the CM5-chips using the amine coupling kit (GE HealthCare) according to the instructions of the manufacturer. The amount of immobilized TFPI was adjusted to the mass of the antigen to give approximate 300 RU. The antibody Fabs were analyzed in mobile phase and at least five different concentrations (0.1, 0.4, 1.6, 6.4 and 25 nM) of the purified antibodies were used in the Biacore assay. The kinetics and binding affinity were calculated using Biacore T100 Evaluation software.
On the technique in general: Surface plasmon resonance follows binding to a sensor surface in real time, without labels.

In test [2] the target is T3, mouse tissue factor pathway inhibitor (TFPI) (mouse, UniProt O54819 29-289, limits assumed).
T3 construct: Bought protein; also called mouse TFPI; mTFPI
T3 sequence (looked up): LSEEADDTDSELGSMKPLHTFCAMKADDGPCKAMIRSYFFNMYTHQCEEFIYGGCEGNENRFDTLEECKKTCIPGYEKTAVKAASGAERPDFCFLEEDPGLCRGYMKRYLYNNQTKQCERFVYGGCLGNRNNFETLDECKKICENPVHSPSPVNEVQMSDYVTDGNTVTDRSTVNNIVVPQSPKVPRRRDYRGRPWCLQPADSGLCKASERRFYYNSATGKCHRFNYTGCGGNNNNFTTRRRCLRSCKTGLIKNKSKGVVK
Description: Biacore, TFPI on CM5 chip, Fab in mobile phase. On the procedure: as §1

The target in test [3] is T2, human tissue factor pathway inhibitor …. Description: ELISA, Fab on coated TFPI. The procedure:
(§2) To select antibody clones that bind to human TFPI, Fab genes of the phage clones from the second and third round of panning were subcloned into a bacterial expression vector and expressed in E. coli strain TG1. The bacterial lysate was added to the wells of the human TFPI-coated Maxisorp plates. After washing, HRP-conjugated goat anti-human Fab was used as a detection antibody and the plates were developed by adding AmplexRed (Invitrogen) with hydrogen peroxide. A signal of at least five-fold higher than the background was considered as positive. The cross reactivity of the anti-human TFPI antibodies to mouse TFPI was determined by a similar mouse TFPI-binding ELISA. The plates were coated with mouse TFPI (R&D System), BSA and lysozyme. The later two antigens were used as negative controls.
as §1

In test [4] the target is T3, mouse tissue factor pathway inhibitor …. The experiment in a line: ELISA, Fab on coated TFPI. On the procedure: as §2, §1
Test [5] addresses T2, human tissue factor pathway inhibitor …. The experiment in a line: cell-based or functional assay.
A further test concerns the target T4, human TFPI K1 (human, UniProt P10646 29-107, limits assumed).
T4 construct: domain: K1; also called Kunitz domain 1
T4 sequence (looked up): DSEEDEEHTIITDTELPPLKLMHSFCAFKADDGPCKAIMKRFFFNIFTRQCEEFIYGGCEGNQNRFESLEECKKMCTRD
Description: Western blots and ELISA. On the procedure:
Western blots and ELISA were used to determine which domain(s) of TFPI of the inhibitory antibodies bind. Recombinant full length human TFPI or TFPI domains were used for these studies. ELISA was similar to Example 3. In the Western Blot, human TFPI or domains were run on 4-12% Bis-Tris SDS PAGE running buffer MES (Invitrogen, Carlsbad, Calif.) and then transferred to cellulose membrane. After incubation with inhibitory antibodies for 10 min, the membrane was washed three times using SNAPid system (Millipore, Billerica, Mass.). A HRP conjugated donkey anti-mouse antibody (Pierce, Rockford, Ill.) at 1 to 10,000 dilution was incubated with the membrane for 10 min. After a similar wash step, the membrane was developed using SuperSignal substrate (Pierce, Rockford, Ill.). Whereas the control anti-Kunitz domain 1 antibody binds to full length TFPI, truncated TFPI and domains, inhibitory anti-TFPI antibodies only bind to TFPI containing Kunitz domain 2.
Background: Immunoblotting shows a protein as a band on a membrane.

T1 sequence (P02769 25-607 limits assumed): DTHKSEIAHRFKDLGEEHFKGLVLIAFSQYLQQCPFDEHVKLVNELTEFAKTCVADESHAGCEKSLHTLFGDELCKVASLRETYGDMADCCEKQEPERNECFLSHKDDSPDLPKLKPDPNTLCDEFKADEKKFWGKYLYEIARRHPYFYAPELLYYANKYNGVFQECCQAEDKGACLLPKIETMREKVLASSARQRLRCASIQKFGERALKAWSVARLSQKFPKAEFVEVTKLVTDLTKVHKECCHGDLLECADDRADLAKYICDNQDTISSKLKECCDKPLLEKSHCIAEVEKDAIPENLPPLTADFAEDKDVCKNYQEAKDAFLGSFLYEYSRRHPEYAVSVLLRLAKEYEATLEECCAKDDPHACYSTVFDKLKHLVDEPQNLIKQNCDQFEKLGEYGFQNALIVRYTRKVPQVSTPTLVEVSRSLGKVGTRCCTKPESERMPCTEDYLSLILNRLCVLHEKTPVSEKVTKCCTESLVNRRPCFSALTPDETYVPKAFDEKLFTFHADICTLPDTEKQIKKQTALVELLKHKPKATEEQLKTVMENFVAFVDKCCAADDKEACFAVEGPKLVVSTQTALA

B1: TP-2C7 Fab (Fab, V domains shown)
VH: QVQLQQSGPGLVKPSQTLSLTCAISGDSVSSNSAAWGWIRQSPGRGLEWLGIIYYRSKWYNHYAVSVKSRITINPDTSKNQFSLQLNSVTPEDTAVYYCARSNWSGYFDYWGQGTLVTVSS
VL: DIQMTQSPSSLSASVGDRVTITCRASQDIRNNLAWYQQKPGKAPKLLIYAASSLQSGVPSRFSGSGSGTDFTLTISSLQPEDFAVYYCQQRNGFPLTFGQGTKVEIKR
notes: Human Fab from HuCal Gold, expressed in E. coli TG1
Broadly, the Kd is a measure of binding affinity in units of concentration. A higher Kd goes with a looser complex. One may read the EC50 as the concentration giving half of the maximal effect. For the molecule B1, the binding result with BSA is “no binding”. Besides, the Kd worked out at 2.01 nM in test [1] and 9.33 nM in test [2]. For the same molecule, the EC50 in test [3] and in test [4] was 0.6 nM each time. Moreover, the “% inhibition of hTFPI activity” value in test [5] was determined as 0%. Also, the “dPT in hemoA plasma” value in test [5] was determined as 62.5 s.

B2: TP-3C2 chimeric IgG (antibody, V domains shown)
VH: QVQLQQSGPGLVKPSQTLSLTCAISGDSVSSSSAAWSWIRQSPGRGLEWLGMIYYRSKWYNHYAVSVKSRITINPDTSKNQFSLQLNSVTPEDTAVYYCARGGSGVMDVWGQGTLVTVSS
VL: DIQMTQSPSSLSASVGDRVTITCRASQSITNYLNWYQQKPGKAPKLLIYDVSNLQSGVPSRFSGSGSGTDFTLTISSLQPEDFAVYYCQQYSGYPLTFGQGTKVEIKR
notes: Chimeric IgG: human variable regions on mouse constant regions, murine IgG1 isotype, made in HKB11 cells
Take B2: in the test with human TFPI K1, the binding result is “no binding”.

B3: TP-4B7 Fab (Fab, V domains shown)
VH: QVQLQQSGPGLVKPSQTLSLTCAISGDSVSSNSAAWSWIRQSPGRGLEWLGIIYKRSKWYNDYAVSVKSRITINPDTSKNQFSLQLNSVTPEDTAVYYCARWHSDKHWGFDYWGQGTLVTVSS
VL: DIVMTQSPLSLPVTPGEPASISCRSSQSLVFSDGNTYLNWYLQKPGQSPQLLIYKGSNRASGVPDRFSGSGSGTDFTLKISRVEAEDVGVYYCQQYDSYPLTFGQGTKVEIKR
notes: as for B1
For the molecule B3, the binding result with BSA was “no binding”. Also, the Kd in test [1] was 15.8 nM; in test [2] it was 51.8 nM. Besides, the figures for the 50% effective concentration (EC50) in test [3] and in test [4] were 0.74 nM and 2.64 nM, respectively. In addition, in test [5], the “% inhibition of hTFPI activity” value came to 100%. For the same molecule, the “dPT in hemoA plasma” value in test [5] was determined as 53.9 s.

B4: TP-3A4 Fab (Fab, V domains shown)
VH: QVQLVESGGGLVQPGGSLRLSCAASGFTFSSYWMHWVRQAPGKGLEWVSSISYDSSNTYYADSVKGRFTISRDNSKNTLYLQMNSLRAEDTAVYYCARYGGMDYWGQGTLVTVSS
VL: DIELTQPPSVSVAPGQTARISCSGDNLRDKYASWYQQKPGQAPVLVIYSKSERPSGIPERFSGSNSGNTATLTISGTQAEDEADYYCSSYTLNPNLNYVFGGGTKLTVLG
notes: as for B1
With B4, the binding result with BSA is listed as “no binding”. For the same molecule, the Kd came to 21.6 nM in test [1] and 23.7 nM in test [2]. Besides, the EC50 in test [3] was 42.8 nM; in test [4], 327 nM. The “% inhibition of hTFPI activity” value in test [5] was found to be 0%. The “dPT in hemoA plasma” value in test [5] was found to be 72.3 s.

B5: TP-2B3 chimeric IgG (antibody, V domains shown)
VH: QVQLQQSGPGLVKPSQTLSLTCAISGDSVSSNSAAWGWIRQSPGRGLEWLGMIYYRSKWYNSYAVSVKSRITINPDTSKNQFSLQLNSVTPEDTAVYYCARTMSKYGGPGMDVWGQGTLVTVSS
VL: DIVLTQSPATLSLSPGERATLSCRASQNIGSNYLAWYQQKPGQAPRLLIYGASTRATGVPARFNGSGSGTDFTLTISSLEPEDFAVYYCQQLNSIPVTFGQGTKVEIKR
notes: as for B2
In the case of B5, the binding result with human TFPI K1 is listed as “no binding”.

B6: TP-3G1 Fab (Fab, V domains shown)
VH: QVQLQQSGPGLVKPSQTLSLTCAISGDSVSSNSGGWGWIRQSPGRGLEWLGLIYYRSKWYNAYAVSVKSRITINPDTSKNQFSLQLNSVTPEDTAVYYCARYLGSNFYVYSDVWGQGTLVTVSS
VL: DIQMTQSPSSLSASVGDRVTITCRASQGISSYLHWYQQKPGKAPKLLIYGASTLQSGVPSRFSGSGSGTDFTLTISSLQPEDFATYYCQQQNGYPFTFGQGTKVEIKR
notes: as for B1
With B6, the binding result in the test with BSA is “no binding”. Further, the Kd stood at 1140 nM in test [1] and 49.1 nM in test [2]. Further, the EC50 was found to be 74.4 nM in test [3] and 8.68 nM in test [4]. Also, in test [5], the “% inhibition of hTFPI activity” value is 93%. Moreover, the “dPT in hemoA plasma” value in test [5] came out at 75.1 s.

B7: TP-3G1 chimeric IgG (antibody, V domains shown)
VH: QVQLQQSGPGLVKPSQTLSLTCAISGDSVSSNSGGWGWIRQSPGRGLEWLGLIYYRSKWYNAYAVSVKSRITINPDTSKNQFSLQLNSVTPEDTAVYYCARYLGSNFYVYSDVWGQGTLVTVSS
VL: DIQMTQSPSSLSASVGDRVTITCRASQGISSYLHWYQQKPGKAPKLLIYGASTLQSGVPSRFSGSGSGTDFTLTISSLQPEDFATYYCQQQNGYPFTFGQGTKVEIKR
notes: as for B2
Consider B7, for which the binding result in the test with human TFPI K1 is given as “no binding”.

B8: TP-2A8-IgG (antibody, V domains shown)
VH: QVQLVESGGGLVQPGGSLRLSCAASGFTFRSYGMSWVRQAPGKGLEWVSSIRGSSSSTYYADSVKGRFTISRDNSKNTLYLQMNSLRAEDTAVYYCARKYRYWFDYWGQGTLVTVSS
VL: DIELTQPPSVSVAPGQTARISCSGDNLRNYYAHWYQQKPGQAPVVVIYYDNNRPSGIPERFSGSNSGNTATLTISGTQAEDEADYYCQSWDDGVPVFGGGTKLTVLG
notes: as for B2
Take B8: in the test with human TFPI K1, the binding result is “no binding”.

B9: TP-3C1 Fab (Fab, V domains shown)
VH: QVQLVESGGGLVQPGGSLRLSCAASGFTFSSYSMHWVRQAPGKGLEWVSGISYSSSFTYYADSVKGRFTISRDNSKNTLYLQMNSLRAEDTAVYYCARALGGGVDYWGQGTLVTVSS
VL: DIALTQPASVSGSPGQSITISCTGTSSDLGGFNTVSWYQQHPGKAPKLMIYSVSSRPSGVSNRFSGSKSGNTASLTISGLQAEDEADYYCQSYDLNNLVFGGGTKLTVLG
notes: Human Fab from HuCal Gold, expressed in E. coli TG1; Shares its VL with TP-2G9 and its VH with TP-3F2
Take B9: in the test with BSA, the binding result is reported as “no binding”. Besides, the Kd in test [1] was 21.6 nM; in test [2], 33.6 nM. For the same molecule, the EC50 in test [3] worked out at 32.8 nM; in test [4] it was 108 nM. Moreover, the “% inhibition of hTFPI activity” value in test [5] was determined as 0%. In addition, in test [5], the “dPT in hemoA plasma” value was found to be 72.3 s.

B10: TP-2G9 Fab (Fab, V domains shown)
VH: QVQLVESGGGLVQPGGSLRLSCAASGFTFNSYAMTWVRQAPGKGLEWVSAIKSDGSNTYYADSVKGRFTISRDNSKNTLYLQMNSLRAEDTAVYYCARNDSGWFDVWGQGTLVTVSS
VL: DIALTQPASVSGSPGQSITISCTGTSSDLGGFNTVSWYQQHPGKAPKLMIYSVSSRPSGVSNRFSGSKSGNTASLTISGLQAEDEADYYCQSYDLNNLVFGGGTKLTVLG
notes: as for B1
With B10, the binding result with BSA is “no binding”. Further, the Kd came out at 48.5 nM in test [1] and 35.7 nM in test [2]. Besides, the values for the EC50 in test [3] and in test [4] were 10.8 nM and 194 nM, respectively. In test [5], the “% inhibition of hTFPI activity” value is 0%. Further, in test [5], the “dPT in hemoA plasma” value is 82.7 s.
